This is an account of results in PMC2859563.

The target in this series is T1, SmcR (Vibrio vulnificus, UniProt Q9L8G8 1-205).
T1 sequence: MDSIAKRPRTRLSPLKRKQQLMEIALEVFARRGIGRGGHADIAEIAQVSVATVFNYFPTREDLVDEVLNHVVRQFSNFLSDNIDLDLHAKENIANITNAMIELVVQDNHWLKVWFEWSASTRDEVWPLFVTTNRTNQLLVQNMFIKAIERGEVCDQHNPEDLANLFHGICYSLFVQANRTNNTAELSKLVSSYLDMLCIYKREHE
Description: ITC.

B1: PvvpE (dsDNA)
DNA 1: ATCTTATTGATAAATCTGCGTAAAAAA
DNA 2: TTTTTTACGCAGATTTATCAATAAGAT
The term Kd denotes the free concentration of one partner at which half of the binding sites on the other are occupied at equilibrium, for simple one-to-one binding. Low values mean tighter binding, high ones weaker binding. The molecule B1 had a Kd of 2.8 µM.

B2: PvvpE-mod (dsDNA)
DNA 1: TTCTTATTGATAAATTTGTGAATAAAA
DNA 2: TTTTATTCACAAATTTATCAATAAGAA
B2 yielded a Kd of 0.076 µM.
